Patent publication US20130225506A1 (POLYPHOR, published 2013)
Numbered stars: 1 amine (or outer) side, 2 acyl side, 3 side chain; on linkers, the order of the positions; unused ones are H or OH. Square brackets hold non-standard residues; d marks the D form. Primed or numbered codes have the meaning given here. Pro((4S)NHBz) = proline with (4S)-NHBz, O=C(N[C@H]1C[C@@H](C(=O)[*:2])N([*:1])C1)c1ccccc1; (4S)Hyp(Bn) = O=C([C@@H]1C[C@H](OCc2ccccc2)CN1[*:1])[*:2]; dPro(cis-4-NH2) = N[C@H]1CN[C@@H](C(=O)O)C1; dPro(4S-NH2) = N[C@@H]1CN[C@@H](C(=O)O)C1; Oic = O=C(O)[C@@H]1C[C@@H]2CCCC[C@@H]2N1; hArg = N=C(N)NCCCC[C@H](N)C(=O)O; 3Pal = N[C@@H](Cc1cccnc1)C(=O)O; Tic = O=C(O)[C@@H]1Cc2ccccc2CN1; d3Pal = N[C@H](Cc1cccnc1)C(=O)O; dHyp = O=C(O)[C@H]1C[C@H](O)CN1; Agb = N=C(N)NCC[C@H](N)C(=O)O; dDab = NCC[C@@H](N)C(=O)O; Orn = NCCC[C@H](N)C(=O)O; Dab = NCC[C@H](N)C(=O)O; Pip′ = not defined here; Mor = not defined here

Biological target: chemokine receptor CXCR7 (UniProt P25106 1-362, limits assumed)
Assay: cell-based or functional assay

chemokine receptor CXCR7, sequence (P25106 whole entry): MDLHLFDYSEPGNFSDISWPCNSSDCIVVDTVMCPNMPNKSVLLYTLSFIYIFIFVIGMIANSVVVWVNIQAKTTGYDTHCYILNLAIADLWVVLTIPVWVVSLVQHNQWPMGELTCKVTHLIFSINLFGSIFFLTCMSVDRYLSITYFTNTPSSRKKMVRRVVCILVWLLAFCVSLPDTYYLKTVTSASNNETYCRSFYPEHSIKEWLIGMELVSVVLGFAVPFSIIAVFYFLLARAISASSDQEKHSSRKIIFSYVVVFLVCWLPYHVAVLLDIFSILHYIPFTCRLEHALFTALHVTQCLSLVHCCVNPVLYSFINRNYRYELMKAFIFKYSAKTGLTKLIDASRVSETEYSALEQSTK

| Binder | β-Arrestin EC50 [nM] |
| --- | --- |
| cyclo(W[dF]WR[dPro(cis-4-NH2)][(4S)Hyp(Bn)]) (SMILES N=C(N)NCCC[C@@H]1NC(=O)[C@H](Cc2c[nH]c3ccccc23)NC(=O)[C@@H](Cc2ccccc2)NC(=O)[C@H](Cc2c[nH]c3ccccc23)NC(=O)[C@@H]2C[C@H](OCc3ccccc3)CN2C(=O)[C@H]2C[C@@H](N)CN2C1=O) [cyclo(-Trp-^DPhe-Trp-Arg-^DPro((4R)NH2)-(4S)-Hyp(Bn)-)] | 6.6 |
| cyclo(R[dF]WR[dPro(cis-4-NH2)][Tic]) (SMILES N=C(N)NCCC[C@@H]1NC(=O)[C@@H]2Cc3ccccc3CN2C(=O)[C@H]2C[C@@H](N)CN2C(=O)[C@H](CCCNC(=N)N)NC(=O)[C@H](Cc2c[nH]c3ccccc23)NC(=O)[C@@H](Cc2ccccc2)NC1=O) [cyclo(-Arg-^DPhe-Trp-Arg-^DPro((4R)NH2)-Tic-)] | 248 |
| cyclo(W[dF]WK[dPro(cis-4-NH2)][Tic]) (SMILES NCCCC[C@@H]1NC(=O)[C@H](Cc2c[nH]c3ccccc23)NC(=O)[C@@H](Cc2ccccc2)NC(=O)[C@H](Cc2c[nH]c3ccccc23)NC(=O)[C@@H]2Cc3ccccc3CN2C(=O)[C@H]2C[C@@H](N)CN2C1=O) [cyclo(-Trp-^DPhe-Trp-Lys-^DPro((4R)NH2)-Tic-)] | 138 |
| cyclo(R[dF]WR[dPro(4S-NH2)][Tic]) (SMILES N=C(N)NCCC[C@@H]1NC(=O)[C@@H]2Cc3ccccc3CN2C(=O)[C@H]2C[C@H](N)CN2C(=O)[C@H](CCCNC(=N)N)NC(=O)[C@H](Cc2c[nH]c3ccccc23)NC(=O)[C@@H](Cc2ccccc2)NC1=O) [cyclo(-Arg-^DPhe-Trp-Arg-^DPro((4S)NH2)-Tic-)] | 13.1 |
| cyclo(W[dF]WR[dPro(cis-4-NH2)][Oic]) (SMILES N=C(N)NCCC[C@@H]1NC(=O)[C@H](Cc2c[nH]c3ccccc23)NC(=O)[C@@H](Cc2ccccc2)NC(=O)[C@H](Cc2c[nH]c3ccccc23)NC(=O)[C@@H]2C[C@@H]3CCCC[C@@H]3N2C(=O)[C@H]2C[C@@H](N)CN2C1=O) [cyclo(-Trp-^DPhe-Trp-Arg-^DPro((4R)NH2)-Oic-)] | 20.9 |
| cyclo(R[dF]WR[dPro(cis-4-NH2)][Oic]) (SMILES N=C(N)NCCC[C@@H]1NC(=O)[C@@H]2C[C@@H]3CCCC[C@@H]3N2C(=O)[C@H]2C[C@@H](N)CN2C(=O)[C@H](CCCNC(=N)N)NC(=O)[C@H](Cc2c[nH]c3ccccc23)NC(=O)[C@@H](Cc2ccccc2)NC1=O) [cyclo(-Arg-^DPhe-Trp-Arg-^DPro((4R)NH2)-Oic-)] | 20.5 |
| cyclo([Agb][dF]WR[dPro(cis-4-NH2)][Tic]) (SMILES N=C(N)NCCC[C@@H]1NC(=O)[C@H](Cc2c[nH]c3ccccc23)NC(=O)[C@@H](Cc2ccccc2)NC(=O)[C@H](CCNC(=N)N)NC(=O)[C@@H]2Cc3ccccc3CN2C(=O)[C@H]2C[C@@H](N)CN2C1=O) [cyclo(-Agb-^DPhe-Trp-Arg-^DPro((4R)NH2)-Tic-)] | 452 |
| cyclo([hArg][dF]WR[dPro(cis-4-NH2)][Tic]) (SMILES N=C(N)NCCCC[C@@H]1NC(=O)[C@@H]2Cc3ccccc3CN2C(=O)[C@H]2C[C@@H](N)CN2C(=O)[C@H](CCCNC(=N)N)NC(=O)[C@H](Cc2c[nH]c3ccccc23)NC(=O)[C@@H](Cc2ccccc2)NC1=O) [cyclo(-hArg-^DPhe-Trp-Arg-^DPro((4R)NH2)-Tic-)] | 12.2 |
| cyclo(W[dF]WR[dP][Pro((4S)NH2)]) [cyclo(-Trp-^DPhe-Trp-Arg-^DPro-Pro((4S)NH2)-)] | 36.9 |
| cyclo(Y[dF]WR[dPro(cis-4-NH2)][Tic]) (SMILES N=C(N)NCCC[C@@H]1NC(=O)[C@H](Cc2c[nH]c3ccccc23)NC(=O)[C@@H](Cc2ccccc2)NC(=O)[C@H](Cc2ccc(O)cc2)NC(=O)[C@@H]2Cc3ccccc3CN2C(=O)[C@H]2C[C@@H](N)CN2C1=O) [cyclo(-Tyr-^DPhe-Trp-Arg-^DPro((4R)NH2)-Tic-)] | 20.9 |
| cyclo(W[dF]W[Dab][dPro(cis-4-NH2)][Tic]) (SMILES NCC[C@@H]1NC(=O)[C@H](Cc2c[nH]c3ccccc23)NC(=O)[C@@H](Cc2ccccc2)NC(=O)[C@H](Cc2c[nH]c3ccccc23)NC(=O)[C@@H]2Cc3ccccc3CN2C(=O)[C@H]2C[C@@H](N)CN2C1=O) [cyclo(-Trp-^DPhe-Trp-Dab-^DPro((4R)NH2)-Tic-)] | 13.6 |
| cyclo(W[dF]WR[dP][Mor]) (reading uncertain; also: printed as cyclo(-Trp-^DPhe-Trp-Arg-^DPro-Mor-)) [cyclo(-Trp-^DPhe-Trp-Arg-^DPro-Mor-)] | 132 |
| cyclo(R[dF]WR[dP][(4S)Hyp(Bn)]) (SMILES N=C(N)NCCC[C@@H]1NC(=O)[C@@H]2C[C@H](OCc3ccccc3)CN2C(=O)[C@H]2CCCN2C(=O)[C@H](CCCNC(=N)N)NC(=O)[C@H](Cc2c[nH]c3ccccc23)NC(=O)[C@@H](Cc2ccccc2)NC1=O) [cyclo(-Arg-^DPhe-Trp-Arg-^DPro-(4S)-Hyp(Bn)-)] | 76.9 |
| cyclo(I[dDab]RW[dP]T) (SMILES CC[C@H](C)[C@@H]1NC(=O)[C@H]([C@@H](C)O)NC(=O)[C@H]2CCCN2C(=O)[C@H](Cc2c[nH]c3ccccc23)NC(=O)[C@H](CCCNC(=N)N)NC(=O)[C@@H](CCN)NC1=O) [cyclo(-Ile-^DDab-Arg-Trp-^DPro-Thr-)] | 48.4 |
| cyclo(W[dF]WR[dP][Pro((4S)F)]) [cyclo(-Trp-^DPhe-Trp-Arg-^DPro-Pro((4S)F)-)] | 119 |
| cyclo(I[dR][Dab]W[dP]T) (SMILES CC[C@H](C)[C@@H]1NC(=O)[C@H]([C@@H](C)O)NC(=O)[C@H]2CCCN2C(=O)[C@H](Cc2c[nH]c3ccccc23)NC(=O)[C@H](CCN)NC(=O)[C@@H](CCCNC(=N)N)NC1=O) [cyclo(-Ile-^DArg-Dab-Trp-^DPro-Thr-)] | 87 |
| cyclo(A[dF]WR[dPro(cis-4-NH2)][Tic]) (SMILES C[C@@H]1NC(=O)[C@@H]2Cc3ccccc3CN2C(=O)[C@H]2C[C@@H](N)CN2C(=O)[C@H](CCCNC(=N)N)NC(=O)[C@H](Cc2c[nH]c3ccccc23)NC(=O)[C@@H](Cc2ccccc2)NC1=O) [cyclo(-Ala-^DPhe-Trp-Arg-^DPro((4R)NH2)-Tic-)] | 322 |
| cyclo(W[dF]WR[dP][Pro((4R)NH2)]) [cyclo(-Trp-^DPhe-Trp-Arg-^DPro-Pro((4R)NH2)-)] | 26.9 |
| cyclo(I[dR]KW[dP]T) (SMILES CC[C@H](C)[C@@H]1NC(=O)[C@H]([C@@H](C)O)NC(=O)[C@H]2CCCN2C(=O)[C@H](Cc2c[nH]c3ccccc23)NC(=O)[C@H](CCCCN)NC(=O)[C@@H](CCCNC(=N)N)NC1=O) [cyclo(-Ile-^DArg-Lys-Trp-^DPro-Thr-)] | 78.7 |
| cyclo(W[dF]WH[dPro(cis-4-NH2)][Tic]) (SMILES N[C@@H]1C[C@@H]2C(=O)N3Cc4ccccc4C[C@H]3C(=O)N[C@@H](Cc3c[nH]c4ccccc34)C(=O)N[C@H](Cc3ccccc3)C(=O)N[C@@H](Cc3c[nH]c4ccccc34)C(=O)N[C@@H](Cc3c[nH]cn3)C(=O)N2C1) [cyclo(-Trp-^DPhe-Trp-His-^DPro((4R)NH2)-Tic-)] | 20.4 |
| cyclo([Pip′][dF]WR[dPro(cis-4-NH2)][Tic]) [cyclo(-Pip-^DPhe-Trp-Arg-^DPro((4R)NH2)-Tic-)] | 882 |
| cyclo(H[dW]HW[dP][Pro((4S)NHBz)]) (SMILES O=C(N[C@H]1C[C@H]2C(=O)N[C@@H](Cc3c[nH]cn3)C(=O)N[C@H](Cc3c[nH]c4ccccc34)C(=O)N[C@@H](Cc3c[nH]cn3)C(=O)N[C@@H](Cc3c[nH]c4ccccc34)C(=O)N3CCC[C@@H]3C(=O)N2C1)c1ccccc1) [cyclo(-His-^DTrp-His-Trp-^DPro-Pro((4S)NHBz)-)] | 414 |
| cyclo(W[dF]WR[dHyp][(4S)Hyp(Bn)]) (SMILES N=C(N)NCCC[C@@H]1NC(=O)[C@H](Cc2c[nH]c3ccccc23)NC(=O)[C@@H](Cc2ccccc2)NC(=O)[C@H](Cc2c[nH]c3ccccc23)NC(=O)[C@@H]2C[C@H](OCc3ccccc3)CN2C(=O)[C@H]2C[C@H](O)CN2C1=O) [cyclo(-Trp-^DPhe-Trp-Arg-^DPro((4S)OH)-(4S)-Hyp(Bn)-)] | 7.6 |
| cyclo(R[dF]W[hArg][dPro(cis-4-NH2)][Tic]) (SMILES N=C(N)NCCCC[C@@H]1NC(=O)[C@H](Cc2c[nH]c3ccccc23)NC(=O)[C@@H](Cc2ccccc2)NC(=O)[C@H](CCCNC(=N)N)NC(=O)[C@@H]2Cc3ccccc3CN2C(=O)[C@H]2C[C@@H](N)CN2C1=O) [cyclo(-Arg-^DPhe-Trp-hArg-^DPro((4R)NH2)-Tic-)] | 352 |
| cyclo([3Pal][dF]WR[dPro(cis-4-NH2)][Tic]) (SMILES N=C(N)NCCC[C@@H]1NC(=O)[C@H](Cc2c[nH]c3ccccc23)NC(=O)[C@@H](Cc2ccccc2)NC(=O)[C@H](Cc2cccnc2)NC(=O)[C@@H]2Cc3ccccc3CN2C(=O)[C@H]2C[C@@H](N)CN2C1=O) [cyclo(-3Pal-^DPhe-Trp-Arg-^DPro((4R)NH2)-Tic-)] | 5.1 |
| cyclo(W[dF]W[Orn][dPro(cis-4-NH2)][Tic]) (SMILES NCCC[C@@H]1NC(=O)[C@H](Cc2c[nH]c3ccccc23)NC(=O)[C@@H](Cc2ccccc2)NC(=O)[C@H](Cc2c[nH]c3ccccc23)NC(=O)[C@@H]2Cc3ccccc3CN2C(=O)[C@H]2C[C@@H](N)CN2C1=O) [cyclo(-Trp-^DPhe-Trp-Orn-^DPro((4R)NH2)-Tic-)] | 26.1 |
| cyclo(W[d3Pal]WR[dPro(cis-4-NH2)][Tic]) (SMILES N=C(N)NCCC[C@@H]1NC(=O)[C@H](Cc2c[nH]c3ccccc23)NC(=O)[C@@H](Cc2cccnc2)NC(=O)[C@H](Cc2c[nH]c3ccccc23)NC(=O)[C@@H]2Cc3ccccc3CN2C(=O)[C@H]2C[C@@H](N)CN2C1=O) [cyclo(-Trp-^D3Pal-Trp-Arg-^DPro((4R)NH2)-Tic-)] | 6.1 |
